Assay [1] deals with ORFV125 lacking the 30 C-terminal residues (orf virus). Put plainly: SEC.
Assay [2] shares this target. Put plainly: ITC. (In general: Isothermal titration calorimetry measures the heat released or taken up as one component is titrated into another.)

The values below come from PMC7719400.

The stoichiometry N is a count of units in the complex or per binding partner. “ORFV125 lacking the 30 C-terminal residues (domain or fragment)”: in assay [1], the stoichiometry N came out at 2.

B1: Bax BH3 motif peptide (human, 50-77, 28-mer) (peptide)
peptide: VPQDASTKKLSECLKRIGDELDSNMELQ
As usually defined, the Kd is the concentration at which binding is half-saturated. Take B1: the dissociation constant (Kd) in assay [2] came out at 0.682 µM. This lies in the sub-micromolar range.

B2: Bak BH3 motif peptide (human, 67-92) (peptide)
peptide: PSSTMGQVGRQLAIIGDDINRRYDSE
In assay [2], B2 displayed a dissociation constant (Kd) of 5.8 µM.

B3: Puma BH3 motif peptide (human, 130-155) (peptide)
peptide: EEQWAREIGAQLRRMADDLNAQYERR
The molecule B3 yielded a dissociation constant (Kd) in assay [2] of 1.75 µM.
